According to paper PMC6126843, “A dual-specific macrophage colony-stimulating factor antagonist of c-FMS and αvβ3 integrin for osteoporosis therapy” (PLoS Biology, 2018):

Legend:
c-FMS (Homo sapiens) = c-FMS (Homo sapiens) (UniProt P07333); details: cited from earlier work
[1] = target: M-CSFRGD variant 5.6, purified soluble protein (human) (UniProt P09603); assay: SPR; ProteOn XPR36; M-CSF variants immobilised by amine coupling; c-FMS or αvβ3 integrin flowed at 0, 12.5, 25, 50, 100 and 200 nM, 50 μl/min, 25 °C, PBS + 0.005% Tween; KD from the equilibrium binding phase; apparent (S9 Fig legend)
[2] = target: M-CSF_(c-FMS), monospecific M-CSF that can bind only c-FMS (human) (UniProt P09603); assay: as above
[3] = target: M-CSFRGD variant 4.24, purified soluble protein (human) (UniProt P09603); assay: as above
[4] = target: M-CSFRGD variant 4.22, purified soluble protein (human) (UniProt P09603); assay: as above
[5] = target: αvβ3 integrin (Homo sapiens) (UniProt P06756); details: cited from earlier work
[6] = target: M-CSF_(αvβ3), monospecific M-CSF that can bind αvβ3 integrin (human) (UniProt P09603); assay: SPR; ProteOn XPR36; M-CSF variants immobilised by amine coupling; c-FMS or αvβ3 integrin flowed at 0, 12.5, 25, 50, 100 and 200 nM, 50 μl/min, 25 °C, PBS + 0.005% Tween; KD from the equilibrium binding phase; apparent (S9 Fig legend)
[7] = target: T1, soluble Fc-conjugated human c-FMS (human, UniProt P07333 20-517); assay: flow cytometry on cells; yeast surface display: yeast displaying M-CSF incubated with soluble c-FMS-Fc (0.5–2000 nM for the titration, 100 nM for the libraries, 50 nM for single clones) in PBS + 1% BSA, 1 h at room temperature; detected with goat anti-human Fc FITC; apparent; details: one partner purified
T1 construct: c-FMS (M-CSF receptor, CSF-1R), human, soluble form; Detected with goat anti-human Fc FITC; also called c-FMS-Fc; soluble c-FMS; source: bought: R&D systems
T1 sequence (P07333 20-517): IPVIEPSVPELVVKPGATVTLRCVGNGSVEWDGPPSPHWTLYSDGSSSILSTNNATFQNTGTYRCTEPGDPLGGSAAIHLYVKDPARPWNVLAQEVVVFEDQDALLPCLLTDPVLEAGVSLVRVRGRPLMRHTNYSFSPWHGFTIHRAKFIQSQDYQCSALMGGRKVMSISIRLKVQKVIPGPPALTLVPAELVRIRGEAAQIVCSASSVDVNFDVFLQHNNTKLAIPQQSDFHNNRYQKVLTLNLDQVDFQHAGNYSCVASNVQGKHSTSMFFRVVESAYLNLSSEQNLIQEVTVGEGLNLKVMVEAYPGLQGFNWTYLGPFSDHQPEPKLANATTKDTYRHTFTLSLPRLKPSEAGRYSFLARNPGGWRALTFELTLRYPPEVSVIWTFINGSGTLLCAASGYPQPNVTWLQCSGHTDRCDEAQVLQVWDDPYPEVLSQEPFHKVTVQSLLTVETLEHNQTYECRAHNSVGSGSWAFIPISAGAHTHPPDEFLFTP

Chain of human c-FMS soluble protein (P07333 20-517): as above
Chain of αvβ3 integrin (Homo sapiens) (P06756 31-992, chain 1 of 2): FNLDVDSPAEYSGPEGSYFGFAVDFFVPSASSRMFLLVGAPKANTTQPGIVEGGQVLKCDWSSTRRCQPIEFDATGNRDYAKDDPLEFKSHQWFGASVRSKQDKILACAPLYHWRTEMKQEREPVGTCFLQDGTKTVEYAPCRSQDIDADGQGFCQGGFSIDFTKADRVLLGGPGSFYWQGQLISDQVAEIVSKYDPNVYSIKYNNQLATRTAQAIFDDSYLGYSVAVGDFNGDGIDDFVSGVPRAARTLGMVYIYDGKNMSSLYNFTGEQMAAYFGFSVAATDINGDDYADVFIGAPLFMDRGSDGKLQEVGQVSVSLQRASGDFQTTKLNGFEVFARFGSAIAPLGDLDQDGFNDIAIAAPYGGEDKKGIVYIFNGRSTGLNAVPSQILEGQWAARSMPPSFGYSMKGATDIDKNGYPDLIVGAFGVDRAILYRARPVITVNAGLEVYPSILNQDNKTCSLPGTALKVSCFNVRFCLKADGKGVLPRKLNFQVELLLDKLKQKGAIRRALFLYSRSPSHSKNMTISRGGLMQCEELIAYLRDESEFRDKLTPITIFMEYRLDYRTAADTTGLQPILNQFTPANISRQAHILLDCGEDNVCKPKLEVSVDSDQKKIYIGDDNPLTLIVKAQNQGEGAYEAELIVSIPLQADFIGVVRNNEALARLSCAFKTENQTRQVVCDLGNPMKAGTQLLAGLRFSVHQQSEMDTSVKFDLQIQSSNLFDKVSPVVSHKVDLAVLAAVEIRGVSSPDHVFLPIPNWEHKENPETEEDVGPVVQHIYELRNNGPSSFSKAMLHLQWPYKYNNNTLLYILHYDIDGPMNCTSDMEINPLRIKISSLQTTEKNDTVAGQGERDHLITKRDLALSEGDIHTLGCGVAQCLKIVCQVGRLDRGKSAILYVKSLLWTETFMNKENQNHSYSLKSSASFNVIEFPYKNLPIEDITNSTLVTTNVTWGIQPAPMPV
Chain of αvβ3 integrin (Homo sapiens) (P05106 27-718, chain 2 of 2, further chain): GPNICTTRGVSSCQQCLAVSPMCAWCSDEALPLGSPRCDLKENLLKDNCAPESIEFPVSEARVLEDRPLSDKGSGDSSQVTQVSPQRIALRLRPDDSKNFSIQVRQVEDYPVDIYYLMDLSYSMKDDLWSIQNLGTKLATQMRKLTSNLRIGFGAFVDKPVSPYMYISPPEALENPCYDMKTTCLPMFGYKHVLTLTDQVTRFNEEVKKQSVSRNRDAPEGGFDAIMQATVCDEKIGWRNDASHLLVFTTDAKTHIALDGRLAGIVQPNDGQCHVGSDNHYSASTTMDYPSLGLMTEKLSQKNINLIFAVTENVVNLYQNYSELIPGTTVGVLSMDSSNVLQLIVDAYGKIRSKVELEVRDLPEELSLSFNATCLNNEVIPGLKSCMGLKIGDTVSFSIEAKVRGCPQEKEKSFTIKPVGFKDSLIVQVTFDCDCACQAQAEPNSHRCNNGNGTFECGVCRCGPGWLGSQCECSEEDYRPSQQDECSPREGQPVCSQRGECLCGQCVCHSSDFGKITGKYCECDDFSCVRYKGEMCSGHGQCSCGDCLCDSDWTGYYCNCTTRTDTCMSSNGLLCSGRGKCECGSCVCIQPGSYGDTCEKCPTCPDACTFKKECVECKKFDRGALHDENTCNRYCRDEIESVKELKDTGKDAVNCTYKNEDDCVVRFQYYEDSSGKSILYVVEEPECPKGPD
Chain of c-FMS (Homo sapiens) (P07333 20-517): as the sequence (P07333 20-517) above
Chain of vitronectin (P04004 399-478): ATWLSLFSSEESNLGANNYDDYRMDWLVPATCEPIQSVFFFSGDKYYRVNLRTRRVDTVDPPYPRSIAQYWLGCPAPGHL
Chain of M-CSF (P09603 33-190): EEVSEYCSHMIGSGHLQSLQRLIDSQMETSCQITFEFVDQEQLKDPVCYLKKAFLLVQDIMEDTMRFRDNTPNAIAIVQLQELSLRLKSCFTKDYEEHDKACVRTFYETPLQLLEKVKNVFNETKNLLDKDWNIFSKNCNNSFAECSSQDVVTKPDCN

Kd [1] [nM] | Kd [3] [nM] | Kd [4] [nM] | Molecule | other results
96 | 219 | 152 | human c-FMS soluble protein (from UniProt P07333 20-517) (receptor) | Kd [2]: 195 nM
245 | 108 | 199 | soluble human αvβ3 integrin (from UniProt P06756 31-1048; P05106 27-718) (complex) | Kd [6]: 231 nM

Further lines, the molecule ahead of its results:

Molecule | Kd [1] [nM] | Kd [3] [nM] | Kd [4] [nM] | other results
M-CSF (from UniProt P09603) |  |  |  | Kd (c-FMS (Homo sapiens)): 13.6 nM
vitronectin (from UniProt P04004) |  |  |  | Kd [5]: 40.7 nM
M-CSF_(C31S), displayed on the yeast surface (ligand, Yeast-displayed Aga fusion with c-myc tag (carrier left out). Mature numbering +32 = precursor. Limits follow the M-CSF part of PDB 4WRL entity 2 (mature 1-149); the paper's own limits are not …) EEVSEYCSHMIGSGHLQSLQRLIDSQMETSSQITFEFVDQEQLKDPVCYLKKAFLLVQDIMEDTMRFRDNTPNAIAIVQLQELSLRLKSCFTKDYEEHDKACVRTFYETPLQLLEKVKNVFNETKNLLDKDWNIFSKNCNNSFAECSSQ |  |  |  | Kd [7]: 20 nM
